This experiment addresses Full-length human importin-α1 (h-importin-α1) (1–526) (human, UniProt P52292 1-526). Put plainly: ITC. The conditions noted are these: both partners purified.

The record followed here is paper PMC4319847 (PLoS ONE, 2015).

One may read the Kd as the concentration at which binding is half-saturated. Low values mean tighter binding, high ones weaker binding. The molecule PKKKRKV (source: synthetic peptide) [SV40 NLS peptide (PKKKRKV)] yielded a Kd of 102 ± 11 µM.
